In US20170051048A1 (ALDERBIO, published 2017):

B1: Antibody Ab5 (antibody, human IgG1, kappa, N297A, V domains shown)
VH: QSVEESGGRLVTPGTPLTLTCTVSGFSLSNYAVGWVRQAPGKGLEWIGIIGRNGNTWYASWARGRFTISKTSTTVDLKITSPTSEDTATYFCARGYGRSVAYYVFNIWGPGTLVTVSS
VL: AYDMTQTPASVEVAVGGTVTIKCQASQSIYSNLAWYQQRPGQPPKLLIYDASTLESGVPSRFKGSGSGTEYTLTISGVECADAASYYCQQGFTVSDIDNAFGGGTEVVVKR
B2: Antibody Ab2 (antibody, human IgG1, kappa, N297A, V domains shown)
VH: EVQLVESGGGLVQPGGSLRLSCAASGFTVSSYAMSWVRQAPGKGLEWVGVITSIGSTVYASSAKGRFTISRDNSKNTLYLQMNSLRAEDTAVYYCARGYDDYDEMTYFNIWGQGTLVTVSS
VL: DIQMTQSPSTLSASVGDRVTITCQASQNIYSNLAWYQQKPGKAPKLLIYGASNLDAGVPSRFSGSGSGTEYTLTISSLQPDDFATYYCQSAFDSDSTENTFGGGTKVEIKR
B3: Antibody Ab6 (antibody, human IgG1, kappa, N297A)
heavy: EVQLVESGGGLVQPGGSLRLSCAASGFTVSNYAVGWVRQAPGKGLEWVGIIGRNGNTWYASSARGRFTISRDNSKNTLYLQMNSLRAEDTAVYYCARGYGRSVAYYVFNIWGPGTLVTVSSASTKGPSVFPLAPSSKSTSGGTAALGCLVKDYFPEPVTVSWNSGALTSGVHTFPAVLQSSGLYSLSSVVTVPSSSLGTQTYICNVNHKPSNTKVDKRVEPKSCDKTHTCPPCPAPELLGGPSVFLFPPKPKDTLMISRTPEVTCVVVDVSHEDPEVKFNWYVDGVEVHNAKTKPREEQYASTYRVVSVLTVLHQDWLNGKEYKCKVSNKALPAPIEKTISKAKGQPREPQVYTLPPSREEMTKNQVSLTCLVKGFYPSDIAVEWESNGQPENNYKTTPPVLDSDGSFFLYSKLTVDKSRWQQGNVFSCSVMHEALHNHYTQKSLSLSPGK
light: DIQMTQSPSTLSASVGDRVTITCQASQSIYSNLAWYQQKPGKAPKLLIYDASTLESGVPSRFSGSGSGTEYTLTISSLQPDDFATYYCQQGFTVSDIDNAFGGGTKVEIKRTVAAPSVFIFPPSDEQLKSGTASVVCLLNNFYPREAKVQWKVDNALQSGNSQESVTEQDSKDSTYSLSSTLTLSKADYEKHKVYACEVTHQGLSSPVTKSFNRGEC
B4: Antibody Ab4 (antibody, human IgG1, kappa, N297A, V domains shown)
VH: EVQLVESGGGLVQPGGSLRLSCAASGFTVSSYVMIWVRQAPGKGLEYIGITWSAGTYYASSAKGRFTISRDNSKNTLYLQMNSLRAEDTAVYYCAGGGGSIYDIWGQGTLVTVSS
VL: DIQMTQSPSTLSASVGDRVTITCQSSQSVYKNNYLSWYQQKPGKAPKLLIYDASNLPSGVPSRFSGSGSGTEFTLTISSLQPDDFATYYCLGDYDDDADNAFGGGTKVEIKR
B5: Antibody Ab1 (antibody, human IgG1, kappa, N297A, V domains shown)
VH: QSLEESGGRLVTPGTPLTLTCTVSGFSLSSYAMSWVRQAPGKGLEWIGVITSIGSTVYASWAKGRFTISKTSTTVDLKITSPTTEDTATYFCARGYDDYDEMTYFNIWGQGTLVTVSS
VL: ALVMTQTPSSVSAAVGGTVTINCQASQNIYSNLAWYQQRPGQRPKLLIYGASNLDAGVPSRFRGSGSGTEYTLTISDLECDDVGTYYCQSAFDSDSTENTFGGGTEVVVKR
B6: Antibody Ab9 (antibody, human IgG1, kappa, N297A, V domains shown)
VH: QSVEESGGRLVTPGTPLTLTCTVSGIDLSMYSMGWVRQAPGKGLEYIGWISYGGTAYYASWAKGRFTISKTSTTVELKITSPTIEDTATYFCARETPVNYYLDIWGQGTLVTVSS
VL: AYDMTQTPASVSAAVGGTVTIKCQASENIGSYLAWYQQKPGQPPELLIYRASTLASGVPSRFKGSGSGTQFTLTISGVECADAATYYCQQGYNSENLDNAFGGGTEVVVKR
B7: Antibody Ab14 (antibody, human IgG1, kappa, N297A, V domains shown)
VH: EVQLVESGGGLVQPGGSLRLSCAASGFTVSTYWMSWVRQAPGKGLEWVGDIYFSNEETNYASSAKGRFTISRDNSKNTLYLQMNSLRAEDTAVYYCARGSPDVDIGIDMWGPGTLVTVSS
VL: DIQMTQSPSSLSASVGDRVTITCQSSQNVYKNNYLSWYQQKPGKVPKLLIYKASTLASGVPSRFSGSGSGTDFTLTISSLQPEDVATYYCAGGYTSSSDNAFGGGTKVEIKR
B8: Antibody Ab20 (antibody, human IgG1, kappa, N297A, V domains shown)
VH: EVQLVESGGGLVQPGGSLRLSCAASGFTVSTYWMSWVRQAPGKGLEWVGDIYFSNEETNYATSAKGRFTISRDNSKNTLYLQMNSLRAEDTAVYYCARGSPDVEIAIDMWGQGTLVTVSS
VL: DIQMTQSPSSLSASVGDRVTITCQSSQNVYKNNYLSWYQQKPGKVPKLLIYKASTLASGVPSRFSGSGSGTDFTLTISSLQPEDVATYYCAGGYTSSSDNAFGGGTKVEIKR
B9: Antibody Ab13 (antibody, human IgG1, kappa, N297A, V domains shown)
VH: QSVEASGGRLVTPGTPLTLTCTASGFSLSTYWMSWVRQAPGKGLEWIGDIYFSNEETNYASWAKGRFTISKTSTTVDLNVISPTTEDTATYFCARGSPDVDIGIDMWGPGTLVTVSS
VL: AAVLTQTPSPVSAAVGGTVSISCQSSQNVYKNNYLSWYQQKPGQPPKLLIYKASTLASGVPSRFKGGGSGTDFTLTISDVQCDAAATYYCAGGYTSSSDNAFGGGTEVVVKR
B10: Antibody Ab19 (antibody, human IgG1, kappa, N297A, V domains shown)
VH: QSVEASGGRLVMPGGSLTLTCTASGFSLSTYWMSWVRQAPGKGLEWIGDIYFSNEETNYATWAKGRFTISKTSTTVDLNVISPTTEDTATYFCARGSPDVEIAIDMWGQGTLVTVSS
VL: AAVLTQTPSPVSAAVGGTVSISCQSSQNVYKNNYLSWYQQKPGQPPKLLIYKASTLASGVPSRFKGSGSGTDFTLTISDVQCDAAATYYCAGGYSSSSDNAFGGGTEVVVKR
B11: Antibody Ab11 (antibody, human IgG1, kappa, N297A, V domains shown)
VH: QSLEESGGRLVTPGTPLTLTCTASGFSLSGYDMSWVRQAPGKGLEYIGLISYDGNTYYATWAKGRFTISKTSTTVDLKITSPTTEDTATYFCARSLYAGPNAGIGPFNIWGQGTLVTVSS
VL: AFELTQTPSSVEAAVGGTVTIKCQASQNIVTNLAWYQQKPGQPPKLLIYGASTLASGVSSRFKGSGSGTQFTLTISDLECADAATYFCQSYDGFNSAGFGGGTEVVVKR
B12: Antibody Ab17 (antibody, human IgG1, kappa, N297A, V domains shown)
VH: QSLEESGGRLVTPGGSLTLTCAASGFSLTGYNLVWVRQAPGKGLEWIGFISYGDTTYYASWAKGRFTISKTSTTVTLTITDLQPSDTGTYFCARETANTYDYGIWGPGTLVTVSS
VL: AIEMTQTPFSVSAAVGGTVTIKCQASQTISNYLAWYQQKPGQPPKLLIYGASNLESGVPSRFKGSGSGTQFTLTISDLECDDAATYYCQQGYTISNVDNNVFGGGTEVVVKR
B13: Antibody Ab8 (antibody, human IgG1, kappa, N297A, V domains shown)
VH: QVQLVESGGGVVQPGRSLRLSCAASGFTFSSYAMIWVRQAPGKGLEYIGYIDTDTSAYYASSVKGRFTISRDNSKNTLYLQMSSLRAEDTAVYYCARSYAAYGGYPATFDPWGQGTLVTVSS
VL: DIQMTQSPSSLSASVGDRVTITCQASEDIYNLLAWYQQKPGKVPKLLIYSASTLASGVPSRFSGSGSGTDYTLTISSLQPEDVATYYCQNNYLVTTYGVAFGGGTKVEIKR
B14: Antibody Ab7 (antibody, human IgG1, kappa, N297A, V domains shown)
VH: QEQLKESGGRLVTPGTPLTLTCTVSGFSLSSYAMIWVRQAPGKGLEYIGYIDTDTSAYYASWVKGRFTISRTSTTVDLKITSPTTEDTATYFCARSYAAYGGYPATFDPWGPGTLVTVSS
VL: DVVMTQTPASVSQPVGGTVTIKCQASEDIYNLLAWYQQKPGQPPKLLIYSASTLASGVPSRFKGSGSGTEYTLTISGLECADAATYYCQNNYLVTTYGVAFGGGTEVVVKR
B15: Antibody Ab15 (antibody, human IgG1, kappa, N297A, V domains shown)
VH: QSVEESGGRLVTPGTPLTLTCTVSGIDLSSYAMIWVRQAPGKGLEYIGIIWSGGTYYATWAKGRFTISKTSTTVDLQITSPTTEDAATYFCAAGGGSIYDVWGPGTLVTVSS
VL: AAVLTQTPSPVSAAVGDTVTIKCQSSQSVYKNNYLSWYQQKPGQPPKLLIYDASNLPSGVPSRFSGSGSGTQFTLTISGVQCDDAATYYCLGDYDDDTDNGFGGGTEVVVKR
B16: Antibody Ab12 (antibody, human IgG1, kappa, N297A, V domains shown)
VH: QVQLVESGGGVVQPGRSLRLSCAASGFSLSGYDMSWVRQAPGKGLEWVGLISYDGNTYYATSAKGRFTISRDNSKNTLYLQMSSLRAEDTAVYYCARSLYAGPNAGIGPFNIWGQGTLVTVSS
VL: AFQMTQSPSSLSASVGDRVTITCQASQNIVTNLAWYQQKPGKVPKLLIYGASTLASGVPSRFSGSGSGTDFTLTISSLQPEDVATYYCQSYDGFNSAGFGGGTKVEIKR
B17: Antibody Ab10 (antibody, human IgG1, kappa, N297A, V domains shown)
VH: QVQLVESGGGVVQPGRSLRLSCAASGFTFSMYSMGWVRQAPGKGLEYIGWISYGGTAYYASSAKGRFTISRDNSKNTLYLQMSSLRAEDTAVYYCARETPVNYYLDIWGQGTLVTVSS
VL: AYDMTQSPSSLSASVGDRVTITCQASENIGSYLAWYQQKPGKVPKLLIYRASTLASGVPSRFSGSGSGTDFTLTISSLQPEDVATYYCQQGYNSENLDNAFGGGTKVEIKR
B18: Antibody Ab18 (antibody, human IgG1, kappa, N297A, V domains shown)
VH: EVQLVESGGGLVQPGGSLRLSCAASGFTVSGYNLVWVRQAPGKGLEWVGFISYGDTTYYASSAKGRFTISRDNSKNTLYLQMNSLRAEDTAVYYCARETANTYDYGIWGQGTLVTVSS
VL: DIQMTQSPSTLSASVGDRVTITCQASQTISNYLAWYQQKPGKAPKLLIYGASNLESGVPSRFSGSGSGTEFTLTISSLQPDDFATYYCQQGYTISNVDNNVFGGGTKVEIKR
B19: Antibody Ab16 (antibody, human IgG1, kappa, N297A, V domains shown)
VH: QSVEEFGGRLVTPGTPLTLTCTVSGFSLNNYAMTWVRQAPGKGLEWIGIIGSIGTTYYASWAKGRFFISKTSTTVDLKIISPTTEDTATYFCARDAGVTVDGYGYYFNIWGPGTLVTVSS
VL: ALVMTQTPSSTSEPVGGTVTINCQASQNIGNDLSWYQQKPGQPPELLIYSTSKLATGVPKRFSGSRSGTQFTLTISDLECDDAATYYCLGVYSYISDDGNAFGGGTEVVVKR

Target: T1, Homo sapiens Beta-Nerve Growth Factor (beta-NGF) (Homo sapiens, UniProt P01138 122-241)
T1 construct: Biotinylated and held on neutravidin plates in the ELISA; also called huNGF; B-NGF
T1 sequence (P01138 122-241): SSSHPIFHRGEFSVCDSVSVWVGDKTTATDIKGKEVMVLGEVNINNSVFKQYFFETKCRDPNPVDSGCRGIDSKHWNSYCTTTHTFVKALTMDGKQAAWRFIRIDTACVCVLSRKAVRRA
Test: Antigen binding ELISA: biotinylated NGF on neutravidin plates, anti-human Fc-HRP, OD 450 nm
Experimental: (§1) To identify and characterize antibodies and Fab fragments that bind to human NGF, antibody- and Fab-containing solutions were tested by ELISA. Briefly, neutravidin coated plates (Thermo Scientific), were blocked with ELISA buffer (0.1 mg/mL BSA, 1×PBS pH 7.4, 0.002% Tween 20 and 0.005% sodium azide) for 1 hr at room temperature. The plates were then coated with a 1 µg/mL biotinylated B-NGF solution in ELISA buffer for 1 hour at room temperature. This was followed by a wash step (3× using PBS plus 0.05% Tween 20) and a second block with ELISA buffer. The recombinant antibodies or Fabs were then added onto the plates and incubated for 1 hour at room temperature and then washed 3× with PBS/Tween solution. For development, an anti-human Fc-HRP or an anti-human Fab-fragment HRP (1:5000 dilution in ELISA buffer) was added onto the wells and incubated for 45 min at RT. After a 3× wash step with PBS/Tween solution, the plate was developed using TMB substrate for 3 minutes, stopped using 0.5M HCl, and read at 450 nm.

Q: For B1, which EC50 is on record?
A: 253 pM

Q: And the “EC50 (read off the curve)” value?
A: ~300 pM

Q: With B2 as the binder, how does the EC50 read?
A: 692 pM

Q: And the “EC50 (read off the curve)” value?
A: ~700 pM

Q: With B3 as the binder, how does the EC50 read?
A: 256 pM

Q: And the “EC50 (read off the curve)” value?
A: ~300 pM

Q: For B4, which EC50 is on record?
A: 535 pM

Q: And the “EC50 (read off the curve)” value?
A: ~50 pM

Q: With B5 as the binder, how does the EC50 read?
A: 571 pM

Q: And the “EC50 (read off the curve)” value?
A: ~600 pM

Target: T1, Homo sapiens Beta-Nerve Growth Factor …
Test: antigen binding ELISA: biotinylated NGF on neutravidin plates, anti-human Fc-HRP, OD at 450 nm
Experimental: as §1

Q: Which EC50 does the source give for B6 here?
A: 221 pM

Q: How did the EC50 turn out when B7 was run?
A: 646 pM

Q: For B8, which EC50 is on record?
A: 667 pM

Q: For B9, which EC50 is on record?
A: 339 pM

Q: How did the EC50 turn out when B10 was run?
A: 441 pM

Q: How did the EC50 turn out when B11 was run?
A: 379 pM

Q: Which EC50 does the source give for B12 here?
A: 700 pM

Q: With B13 as the binder, how does the EC50 read?
A: 207 pM

Q: How did the EC50 turn out when B14 was run?
A: 203 pM

Q: For B15, which EC50 is on record?
A: 239 pM

Q: How did the EC50 turn out when B16 was run?
A: 780 pM

Q: How did the EC50 turn out when B17 was run?
A: 306 pM

Q: For B18, which EC50 is on record?
A: 561 pM

Q: B19 was tested. Which EC50 did it give?
A: 358 pM
